Assays:
[1] = molecular target: hydrogen peroxide treated recombinant human interferon beta-1a (human) (UniProt P01574); experiment: SEC
[2] = molecular target: metal-catalyzed oxidized recombinant human interferon beta-1a (human) (UniProt P01574); experiment: SEC

Substance: hydrogen peroxide treated recombinant human interferon beta-1a (from UniProt P01574 22-187) (natural protein)
- oligomer fraction (%) [1]: 7%

Substance: metal-catalyzed oxidized recombinant human interferon beta-1a (from UniProt P01574 22-187) (natural protein)
- oligomer fraction (%) [2]: 68%
